In publication PMC5500832 (Chemical Science, 2015):

Type: physicochemical
Conditions: all pH values (3, 5, 7 and 9); 20 °C; over eight days; HPLC-MSMS; detection limit = 0.05%

## FFRKSIINFEKL [compound 3]
  Formation of α-GalCer (background hydrolysis, linker collapse): No formation of α-GalCer was detected
